Source: patent EP0528847B1

How the values were obtained:
[1] = molecular target: full-length human γ-interferon receptor, on cells (human) (UniProt P15260); assay: ¹²⁵I-IFN-γ binding to COS7 cells transfected with plasmid T884-5, Expt. 1
[2] = molecular target: full-length human γ-interferon receptor, on cells (human) (UniProt P15260); assay: ¹²⁵I-IFN-γ binding to COS7 cells transfected with plasmid T886-5, Expt. 2'
[3] = molecular target: full-length human γ-interferon receptor, on cells (human) (UniProt P15260); assay: ¹²⁵I-IFN-γ binding to COS7 cells transfected with plasmid T886-6, Expt. 3'
[4] = molecular target: full-length human γ-interferon receptor, on cells (human) (UniProt P15260); assay: ¹²⁵I-IFN-γ binding to COS7 cells transfected with plasmid T884-5, Expt. 1'
[5] = molecular target: full-length human γ-interferon receptor, on cells (human) (UniProt P15260); assay: ¹²⁵I-IFN-γ binding to COS7 cells transfected with plasmid T886-6, Expt. 3
[6] = molecular target: full-length human γ-interferon receptor, on cells (human) (UniProt P15260); assay: ¹²⁵I-IFN-γ binding to COS7 cells transfected with plasmid T886-5, Expt. 2

UniProt P15260, sequence (P15260 18-489): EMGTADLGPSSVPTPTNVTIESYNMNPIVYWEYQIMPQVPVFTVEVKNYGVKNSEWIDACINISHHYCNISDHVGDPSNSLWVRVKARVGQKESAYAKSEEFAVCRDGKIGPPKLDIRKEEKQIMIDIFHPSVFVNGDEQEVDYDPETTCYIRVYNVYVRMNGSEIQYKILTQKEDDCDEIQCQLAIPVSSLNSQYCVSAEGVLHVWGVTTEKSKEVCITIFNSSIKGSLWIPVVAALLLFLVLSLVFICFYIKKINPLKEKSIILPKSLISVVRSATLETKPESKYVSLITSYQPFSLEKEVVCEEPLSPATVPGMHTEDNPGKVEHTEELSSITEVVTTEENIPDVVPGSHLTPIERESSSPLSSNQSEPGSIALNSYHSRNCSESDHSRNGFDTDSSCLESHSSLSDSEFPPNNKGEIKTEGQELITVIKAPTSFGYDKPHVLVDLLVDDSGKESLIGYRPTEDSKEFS

## human γ-interferon (amino acids 4-137 of the mature protein), produced in E. coli 294 from plasmid pGIF4-137 (from UniProt P01579 4-137) (ligand)
[1]
  Background Binding (1), ¹²⁵I IFN-γ cpm bound at 0.1 µg/ml unlabeled IFN-γ: 1830 cpm
  Background Binding (2), ¹²⁵I IFN-γ cpm bound at 10 µg/ml unlabeled IFN-γ: 130 cpm
  Specific Binding (3) = (1) - (2): 1700 cpm
[2]
  Background Binding (1), ¹²⁵I IFN-γ cpm bound at 0.1 µg/ml unlabeled IFN-γ: 2400 cpm
  Background Binding (2), ¹²⁵I IFN-γ cpm bound at 10 µg/ml unlabeled IFN-γ: 198 cpm
  Specific Binding (3) = (1) - (2): 2210 cpm
[3]
  Background Binding (1), ¹²⁵I IFN-γ cpm bound at 0.1 µg/ml unlabeled IFN-γ: 2090 cpm
  Background Binding (2), ¹²⁵I IFN-γ cpm bound at 10 µg/ml unlabeled IFN-γ: 69.8 cpm
  Specific Binding (3) = (1) - (2): 2020 cpm
[4]
  Background Binding (1), ¹²⁵I IFN-γ cpm bound at 0.1 µg/ml unlabeled IFN-γ: 1560 cpm
  Background Binding (2), ¹²⁵I IFN-γ cpm bound at 10 µg/ml unlabeled IFN-γ: 77.8 cpm
  Specific Binding (3) = (1) - (2): 1480 cpm
[5]
  Background Binding (1), ¹²⁵I IFN-γ cpm bound at 0.1 µg/ml unlabeled IFN-γ: 2530 cpm
  Background Binding (2), ¹²⁵I IFN-γ cpm bound at 10 µg/ml unlabeled IFN-γ: 231 cpm
  Specific Binding (3) = (1) - (2): 2300 cpm
[6]
  Background Binding (1), ¹²⁵I IFN-γ cpm bound at 0.1 µg/ml unlabeled IFN-γ: 1980 cpm
  Background Binding (2), ¹²⁵I IFN-γ cpm bound at 10 µg/ml unlabeled IFN-γ: 150 cpm
  Specific Binding (3) = (1) - (2): 1830 cpm
